Experimental findings from patent US20260125454A1 (SHANGHAI JUNSHI BIOSCIENCES, published 2026) are described below.

Where a chain is given by its changes, count along the chain named.

The target in one assay is CGRP antigen. The assay is described as follows: cell-based or functional assay.
For a further assay, the target named is T1, Biotin-huCGRPaSA (human, not fully specified; biotin (position not given)).
T1 construct: exact construct ('aSA') not explained; also called Biotin CGRPaSA; full-length (1-37) CGRP
T1 peptide: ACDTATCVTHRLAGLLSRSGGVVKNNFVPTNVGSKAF
Description: ELISA, supernatant; relative to chimeric C245. In short, it runs like this:
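Antibodies, including reference chimeric C245, titrated 2.5-fold from 1000 ng/mL and incubated 60 min at 37°C on wells coated with 1.0 μg/mL biotin-CGRPaSA and blocked with 2% BSA. Bound IgG detected with HRP anti-human Fc antibody and TMB, acid-stopped, absorbance 450/620 nm.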

B1: hu37 (antibody, V domains shown)
VH: QVQLVQSGAEVKKPGASVKVSCKASGYTFIDFNMHWVRQAPGQRLEWMGYIYPYNGDVVYNQNFTNRVTLTVDTSSSTAYMELSSLRSEDTAVYYCAREGLGGYWGQGTLVTVSS
VL: DIVLTQSPDSLAVSLGERATINCKASQNIDYDGYTYLNWYQQKPGQPPKVLIYSIFNLESGVPDRFSGSGSGTDFTLTISSLQAEDVAVYYCQQSNEVPYTFGQGTKLEIK
notes: 1F5 HC-1/3E5 LC-1
Take B1: in the assay with CGRP antigen, it took 0.0784 µg/mL to reach half-maximal inhibition (IC50) and the “relative activity (%) vs Ref(TEVA)” value came to 46%. The “Relative binding activity, %” value in the assay with Biotin-huCGRPaSA was 142%.

B2: hu151 (antibody, V domains shown)
VH: B1 VH with A24T, I30T, F32Y, Y52S, D57G, V58T, V59A, N63K, T65K, N66F
VL: B1 VL with Y31F, T35A, L37M, Q42H, I55V, N96H
notes: 3E5 HC-1/1F5 LC1-4
Turning to B2, in the assay with CGRP antigen, inhibition was half-maximal at 0.0677 µg/mL (IC50) and the “relative activity (%) vs Ref(TEVA)” value came to 48%. Further, in the assay with Biotin-huCGRPaSA, the “Relative binding activity, %” value was 119%.

B3: hu86 (antibody, V domains shown)
VH: B1 VH with G56A, N63D
VL: B1 VL with Y31F, T35A, L37M, Q42H, I55V, N96H
notes: 1F5 HC-5/1F5 LC1-4
For the molecule B3, in the assay with CGRP antigen, 0.134 µg/mL corresponded to half-maximal inhibition (IC50) and the “relative activity (%) vs Ref(TEVA)” value was found to be 35%. The “Relative binding activity, %” value with Biotin-huCGRPaSA came to 118%.

B4: hu194 (antibody, V domains shown)
VH: QVQLVQSGAEVKKPGASVKVSCKTSGYTFTDYNMHWVRQAPGQRLEWMGYISPYNAGTAYNQKFKFRVTLTVDTSSSTAYMELSSLRSEDTAVYYCAREGLGGYWGQGTLVTVSS
VL: B1 VL with D32G, T35S, L37M, I55V, V98A
notes: 3E5 HC-4/3H10 LC2-1
As to B4, the “Relative binding activity, %” value with Biotin-huCGRPaSA came out at 98%.

B5: hu90 (antibody, V domains shown)
VH: B1 VH with G56A, N63D
VL: B1 VL with D32G, T35S, L37M, I55V, V98A
notes: 1F5 HC-5/3H10 LC2-1
For the molecule B5, in the assay with CGRP antigen, half-maximal inhibition (IC50) was put at 0.058 µg/mL and the “relative activity (%) vs Ref(TEVA)” value worked out at 53%. In the assay with Biotin-huCGRPaSA, the “Relative binding activity, %” value was 102%.

B6: hu87 (antibody, V domains shown)
VH: B1 VH with G56A, N63D
VL: DIVLTQSPDSLAVSLGERATINCQASQNIDGNTYMNWYQQKPGQPPKVLIYSIFNLESGVPDRFSGSGSGTDFTLTISSLQAEDVAVYYCQQSNDYPYTFGQGTKLEIK
notes: 1F5 HC-5/2B8 LC2-1
Take B6: in the assay with CGRP antigen, the IC50 (commonly the concentration that inhibits the measured activity by half) amounted to 0.124 µg/mL and the “relative activity (%) vs Ref(TEVA)” value amounted to 38%. Further, the “Relative binding activity, %” value with Biotin-huCGRPaSA came out at 138%.

B7: hu167 (antibody, V domains shown)
VH: B4 VH with T24A, A56G
VL: B1 VL
notes: 3E5 HC-2/3E5 LC-1
As for B7, in the assay with CGRP antigen, the midpoint of inhibition, the IC50, lay at 0.125 µg/mL and the “relative activity (%) vs Ref(TEVA)” value turned out to be 26%. Besides, the “Relative binding activity, %” value in the assay with Biotin-huCGRPaSA worked out at 101%.

B8: hu45 (antibody, V domains shown)
VH: B1 VH with I30T
VL: EIVLTQSPATLSLSPGERATLSCKASQNIDFDGYAYMNWYQHKPGQAPRVLIYSVFNLESGIPARFSGSGSGTDFTLTISSLEPEDFAVYYCQQSHEVPYTFGQGTKLEIK
notes: 1F5 HC-2/1F5 LC1-2
In the case of B8, in the assay with CGRP antigen, inhibition was half-maximal at 0.108 µg/mL (IC50) and the “relative activity (%) vs Ref(TEVA)” value turned out to be 33%. In addition, the “Relative binding activity, %” value with Biotin-huCGRPaSA is 119%.

B9: hu100 (antibody, V domains shown)
VH: B4 VH with T24A, I51V, S52Y, A56G, T58S, F66S
VL: B6 VL
notes: 2A2 HC-1/2B8 LC2-1
Consider B9, for which, in the assay with CGRP antigen, inhibition was half-maximal at 0.11 µg/mL (IC50) and the “relative activity (%) vs Ref(TEVA)” value is 28%. Besides, in the assay with Biotin-huCGRPaSA, the “Relative binding activity, %” value was found to be 133%.

B10: hu64 (antibody, V domains shown)
VH: B1 VH with I30T, R44G, S84R, E89D
VL: B1 VL with D32G, T35S, L37M, I55V, V98A
notes: 1F5 HC-3/3H10 LC2-1
For the molecule B10, in the assay with CGRP antigen, the “IC50” value stood at 0.0699 µg/mL and the “relative activity (%) vs Ref(TEVA)” value is 44%. For the same molecule, the “Relative binding activity, %” value with Biotin-huCGRPaSA came to 116%.

B11: hu58 (antibody, V domains shown)
VH: B1 VH with I30T, R44G, S84R, E89D
VL: B8 VL
notes: 1F5 HC-3/1F5 LC1-2
Consider B11, for which, in the assay with CGRP antigen, the “IC50” value is 0.0619 µg/mL and the “relative activity (%) vs Ref(TEVA)” value turned out to be 50%. The “Relative binding activity, %” value in the assay with Biotin-huCGRPaSA stood at 113%.

B12: hu129 (antibody, V domains shown)
VH: B1 VH with I30T, F32Y, R44G, Y50N, D57G, V58T, N63K, T65N, S84R, E89D
VL: B1 VL with D32G, T35S, L37M, I55V, V98A
notes: 2B8 HC1-2/3H10 LC2-1
Take B12: in the assay with CGRP antigen, the “IC50” value came out at 0.088 µg/mL and the “relative activity (%) vs Ref(TEVA)” value was determined as 39%. The “Relative binding activity, %” value with Biotin-huCGRPaSA came out at 117%.

B13: hu32 (antibody, V domains shown)
VH: B1 VH
VL: B8 VL
notes: 1F5 HC-1/1F5 LC1-2
For B13, in the assay with CGRP antigen, the “IC50” value was 0.137 µg/mL and the “relative activity (%) vs Ref(TEVA)” value was found to be 26%. Moreover, in the assay with Biotin-huCGRPaSA, the “Relative binding activity, %” value came out at 116%.

B14: hu50 (antibody, V domains shown)
VH: B1 VH with I30T
VL: B1 VL
notes: 1F5 HC-2/3E5 LC-1
Regarding B14, in the assay with CGRP antigen, half-maximal inhibition (IC50) required 0.0668 µg/mL and the “relative activity (%) vs Ref(TEVA)” value stood at 46%. In addition, the “Relative binding activity, %” value with Biotin-huCGRPaSA worked out at 132%.

B15: hu136 (antibody, V domains shown)
VH: B4 VH with T24A, R44G, Y50N, S52Y, A59V, K65N, F66N, S85R, E89D
VL: B8 VL
notes: 2B8 HC1-3/1F5 LC1-2
Turning to B15, in the assay with CGRP antigen, half-maximal inhibition (IC50) was put at 0.124 µg/mL and the “relative activity (%) vs Ref(TEVA)” value came out at 28%. Also, the “Relative binding activity, %” value with Biotin-huCGRPaSA came out at 101%.

B16: hu63 (antibody, V domains shown)
VH: B1 VH with I30T, R44G, S84R, E89D
VL: B1 VL
notes: 1F5 HC-3/3E5 LC-1
Consider B16, for which, in the assay with CGRP antigen, the “IC50” value came to 0.05 µg/mL and the “relative activity (%) vs Ref(TEVA)” value worked out at 62%. Further, the “Relative binding activity, %” value with Biotin-huCGRPaSA was 122%.

B17: hu84 (antibody, V domains shown)
VH: B1 VH with G56A, N63D
VL: B8 VL
notes: 1F5 HC-5/1F5 LC1-2
In the case of B17, in the assay with CGRP antigen, half-maximal inhibition (IC50) was put at 0.256 µg/mL and the “relative activity (%) vs Ref(TEVA)” value was 19%. For the same molecule, the “Relative binding activity, %” value in the assay with Biotin-huCGRPaSA was determined as 111%.

B18: hu154 (antibody, V domains shown)
VH: B4 VH with A56G
VL: B1 VL
notes: 3E5 HC-1/3E5 LC-1
Regarding B18, in the assay with CGRP antigen, the concentration for half-maximal inhibition (IC50) was determined as 0.0905 µg/mL and the “relative activity (%) vs Ref(TEVA)” value turned out to be 36%. Further, the “Relative binding activity, %” value with Biotin-huCGRPaSA was found to be 121%.

B19: hu193 (antibody, V domains shown)
VH: B4 VH
VL: B1 VL
notes: 3E5 HC-4/3E5 LC-1
In the case of B19, in the assay with CGRP antigen, the “IC50” value stood at 0.0775 µg/mL and the “relative activity (%) vs Ref(TEVA)” value came out at 42%. Further, the “Relative binding activity, %” value with Biotin-huCGRPaSA came to 100%.

B20: hu128 (antibody, V domains shown)
VH: B1 VH with I30T, F32Y, R44G, Y50N, D57G, V58T, N63K, T65N, S84R, E89D
VL: B1 VL
notes: 2B8 HC1-2/3E5 LC-1
Turning to B20, in the assay with CGRP antigen, the “IC50” value was 0.109 µg/mL and the “relative activity (%) vs Ref(TEVA)” value stood at 28%. In the assay with Biotin-huCGRPaSA, the “Relative binding activity, %” value turned out to be 117%.

B21: hu89 (antibody, V domains shown)
VH: B1 VH with G56A, N63D
VL: B1 VL
notes: 1F5 HC-5/3E5 LC-1
As to B21, in the assay with CGRP antigen, the “IC50” value worked out at 0.0979 µg/mL and the “relative activity (%) vs Ref(TEVA)” value turned out to be 48%. Moreover, the “Relative binding activity, %” value with Biotin-huCGRPaSA came to 112%.

B22: hu71 (antibody, V domains shown)
VH: QVQLVQSGSELKKPGASVKVSCKASGYTFTDFNMHWVRQAPGQGLEWMGYIYPYNGDVVYNQNFTNRFVLSVDSSSSTAYLQISSLKAEDTAVYYCAREGLGGYWGQGTLVTVSS
VL: B8 VL
notes: 1F5 HC-4/1F5 LC1-2
As to B22, in the assay with CGRP antigen, the “IC50” value was determined as 0.0404 µg/mL and the “relative activity (%) vs Ref(TEVA)” value was 77%. In the assay with Biotin-huCGRPaSA, the “Relative binding activity, %” value amounted to 120%.

B23: hu131 (antibody, V domains shown)
VH: B4 VH with T24A, R44G, Y50N, S52Y, A59V, K65N, F66N, S85R, E89D
VL: DIVLTQSPASLAVSPGQRATITCKASQNIDYDGYAYLNWYQQKPGQPPKVLIYSVFNLESGVPARFSGSGSGTDFTLTINPVEANDTANYYCQQSNEFPYTFGQGTKLEIK
notes: 2B8 HC1-3/1A2 LC2-1
B23: in the assay with CGRP antigen, the “IC50” value came to 0.0425 µg/mL and the “relative activity (%) vs Ref(TEVA)” value is 80%. Besides, the “Relative binding activity, %” value in the assay with Biotin-huCGRPaSA turned out to be 107%.

B24: hu195 (antibody, V domains shown)
VH: B4 VH
VL: DIQLTQSPSSLSASVGDRVTITCKASQNIDYGGYSYMNWYQQKPGKAPKVLIYSVFNLESGVPSRFSGSGSGTDFTLTISSLQPEDFATYYCQQSNEAPYTFGQGTKLEIK
notes: 3E5 HC-4/3H10 LC2-2
For B24, the “Relative binding activity, %” value with Biotin-huCGRPaSA turned out to be 23%.

B25: hu145 (antibody, V domains shown)
VH: B4 VH with A56G
VL: B23 VL with N85D
notes: 3E5 HC-1/1A2 LC2-2
For the molecule B25, in the assay with CGRP antigen, the “IC50” value is 0.0978 µg/mL and the “relative activity (%) vs Ref(TEVA)” value came out at 35%. In addition, in the assay with Biotin-huCGRPaSA, the “Relative binding activity, %” value was 119%.
